Values quoted from earlier work in publication PMC4586518, “Melanin production through novel processing of proopiomelanocortin in the extracellular compartment of the auricular skin of C57BL/6 mice after UV-irradiation” (Scientific Reports, 2015).

Columns and labels:
[1] = tested on: MC-1R; set-up: method as in 2 sources, ref 23 = [23]; PMID 17317724; doi:10.1096/fj.06-7398com; Rousseau K. et al. Proopiomelanocortin (POMC), the ACTH/melanocortin precursor, is secreted by human epidermal keratinocytes and melanocytes and stimulates melanogenesis . FASEB J 21 , 1844 – 1856 ( 2 ||| ref 34 = [34]; PMID 1556905; doi:10.1016/0024-3205(92)90347-r; Slominski. A. et al. Melanotropic activity of gamma MSH peptides in melanoma cells . Life Sci , 50 , 1103 – 1108 ( 1992 ). 1556905 10.1016/0024-3205(92)90347-r; conditions: MC-1R
Description: To clarify the mechanism of melanin production after UV-irradiation, we assessed the expression of POMC and POMC-derived peptides after UV-irradiation to the skin of the murine auricle.

[2] = tested on: MC-1R
Description: Melanin plays an important role in protecting skin after UV-irradiation. α-MSH is a major catalyst for melanogenesis in the skin following UV-irradiation. α-MSH-LI and ACTH-LI may be present in culture media of normal keratinocytes, fibroblasts, melanocytes, and their cell extracts. Although POMC and POMC-derived peptides such as ACTH and α-MSH are released from the intermedia of the pituitary, it is unlikely that pituitary secretions contribute to local pigmentation. In the present report, POMC-related peptides were detected in the UV-irradiated auricle ... || Structure-activity analyses of α-MSH have reported information on the essential sequence required for MC-1R binding and melanin production. […] However, Ac-His-Phe-Arg-Trp-NH2 had 400,000-fold less activity (EC50 20 μM) than α-MSH in a frog skin bioassay[31] and approximately 7,000-fold less activity (EC50 1 μM) in a lizard skin bioassay. Furthermore, the N-terminal region of α-MSH is ...

B1: proopiomelanocortin (protein, UniProt P01189 1-267, looked up)
chain: MPRSCCSRSGALLLALLLQASMEVRGWCLESSQCQDLTTESNLLECIRACKPDLSAETPMFPGNGDEQPLTENPRKYVMGHFRWDRFGRRNSSSSGSSGAGQKREDVSAGEDCGPLPEGGPEPRSDGAKPGPREGKRSYSMEHFRWGKPVGKKRRPVKVYPNGAEDESAEAFPLEFKRELTGQRLREGDGPDGPADDGAGAQADLEHSLLVAAEKKDEGPYRMEHFRWGSPPKDKRYGGFMTSEKSQTPLVTLFKNAIIKNAYKKGE
modifications: full-length
notes: precursor of α-MSH and ACTH; 32 kDa
affinity for MC-1R [1]: markedly low | influence on melanogenesis via MC-1R [2]: only slightly influenced melanogenesis via MC-1R
